Positions count from the first letter of the chain named.
B1: 72G 73W (protein, listed as Rattus norvegicus)
chain: AFDGTWKVDRNENYEKFMEKMGINVVKRKLGAHDNLKLTITQEGNKFTVKESSNFRNIDVVFELGVDFAYSGWDGTELTGTWTMEGNKLVGKFKRVDNGKELIAVREISGNELIQTYTYEGVEAKRIFKKE
modifications: PEPTIDE (1)...(131) wild-type rat intestinal fatty acid binding protein
B2: 72T 73Q 74A (protein, listed as Rattus norvegicus)
chain: B1 chain with G72T, W73Q, D74A
modifications: PEPTIDE (1)...(131) wild-type rat intestinal fatty acid binding protein
B3: 72T 73V 74L (protein, listed as Rattus norvegicus)
chain: B1 chain with G72T, W73V, D74L
modifications: PEPTIDE (1)...(131) wild-type rat intestinal fatty acid binding protein
B4: 72T 73V 74V (protein, listed as Rattus norvegicus)
chain: B1 chain with G72T, W73V, D74V
modifications: PEPTIDE (1)...(131) wild-type rat intestinal fatty acid binding protein
B5: 72T 74I (protein, listed as Rattus norvegicus)
chain: B1 chain with G72T, W73A, D74I
modifications: PEPTIDE (1)...(131) wild-type rat intestinal fatty acid binding protein
B6: 72S 73V 74V (protein, listed as Rattus norvegicus)
chain: B1 chain with G72S, W73V, D74V
modifications: PEPTIDE (1)...(131) wild-type rat intestinal fatty acid binding protein
B7: 72W 73T 74G (protein, listed as Rattus norvegicus)
chain: B1 chain with G72W, W73T, D74G
modifications: PEPTIDE (1)...(131) wild-type rat intestinal fatty acid binding protein
B8: 72T 73W 74L (protein, listed as Rattus norvegicus)
chain: B1 chain with G72T, D74L
modifications: PEPTIDE (1)...(131) wild-type rat intestinal fatty acid binding protein
B9: 72T 73V 74S (protein, listed as Rattus norvegicus)
chain: B1 chain with G72T, W73V, D74S
modifications: PEPTIDE (1)...(131) wild-type rat intestinal fatty acid binding protein
B10: 72S 73M 74A (protein, listed as Rattus norvegicus)
chain: B1 chain with G72S, W73M, D74A
modifications: PEPTIDE (1)...(131) wild-type rat intestinal fatty acid binding protein
B11: 72S 73L 74A (protein, listed as Rattus norvegicus)
chain: B1 chain with G72S, W73L, D74A
modifications: PEPTIDE (1)...(131) wild-type rat intestinal fatty acid binding protein
B12: 21Y 78I 102I 72A (protein, listed as Rattus norvegicus)
chain: B1 chain with M21Y, G72A, W73A, L78I, L102I
modifications: PEPTIDE (1)...(131) wild-type rat intestinal fatty acid binding protein

Assay: Probe fluorescence ratio response to palmitoleic acid relative to ADIFAB2
Type: binding
Settings: response relative to ADIFAB2
Description: (§1) In an alternate preferred embodiment, the protein is rI-FABP that has Ala substituted for Leu at position 72 (rI-FABP-L72A) with the resulting probe named ADIFAB2. […] Other probes useful in embodiments of the invention are shown in Tables 1-6 and are also described in U.S. application Ser. No. 11/085,792, filed Mar. 21, 2005 which is incorporated herein by reference. The indicated substitutions are with reference to the ADIFAB protein of SEQ ID NO: 2.
(§2) ADIFAB2 also has an altered spectral response, making it especially useful for measurements of FFAu in blood samples (Apple et al, Clinical Proteomics, (2004) 1:41-44, U.S. patent application Ser. No. 10/670,958). The wavelengths at the maximum intensities emitted by these fluorescently-labeled I-FABP's in the absence of FFA is about 420 to 480 nm. The emission wavelengths at the maximum intensities emitted by these fluorescently-labeled I-FABP's with FFA bound are between about 495 to 580 nm. Experiments typically involve measuring the fluorescence response within both emission maxima or at wavelengths for which the effect of interfering molecules such as hemoglobin can be eliminated as described in U.S. application Ser. No. 10/670958 and PCT/US2004/030521 and the calculation of the ratio ‘R’ of the two fluorescence intensities. The baseline value for this ratio, measured in the absence of analyte, is designated R0.
(§3) The intensity ratio (“R” value) is determined as follows. The ratio is calculated using the following formula: R=Fλ1/Fλ2 wherein, Fλ1 is the measured fluorescence intensities (intensity of sample with probe present minus intensity of sample without probe present) at wavelength 1 and Fλ2 is the measured fluorescence intensities (intensity of sample with probe present minus intensity of sample without probe present) at wavelength 2. Then, for a given probe, ΔR, the difference in R value between the measurement in the presence of the test compound (agent) and in the absence of the test compound (agent), is calculated as follows: ΔR=R+agent−R0 In some embodiments, the ΔR value may then be compared to some reference, for example, an agent with a known affinity for a given probe, by ΔR/ΔRreference. Measurements of fluorescence intensities are obtained using standard techniques.

Molecule	DR/DR POA
B1	4.082
B2	3.632
B3	3.642
B4	4.015
B5	3.410
B6	3.322
B7	4.105
B8	3.574
B9	2.909
B10	2.854
B11	3.923
B12	2.089

Assay: Probe fluorescence ratio response to linoleic acid relative to ADIFAB2
Type: binding
Settings: response relative to ADIFAB2
Procedure, shortened: (§4)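 Fluorescently labeled rat intestinal FABP variants were read at two emission wavelengths, near the unbound maximum (about 420 to 480 nm) and the FFA-bound maximum (about 495 to 580 nm). R = Fλ1/Fλ2 after subtracting probe-free intensity; ΔR = R+agent − R0, normalized to ADIFAB2 (rI-FABP-L72A).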

Molecule	DR/DR LA
B1	2.698
B2	3.163
B3	3.165
B4	3.502
B5	3.156
B6	3.085
B7	3.099
B8	2.819
B9	2.611
B10	2.470
B11	3.455
B12	2.879

Assay: Probe fluorescence ratio response to stearic acid relative to ADIFAB2
Type: binding
Settings: response relative to ADIFAB2
Description: as §1, §2, §3

Molecule	DR/DR SA
B1	0.294
B2	2.318
B3	1.411
B4	1.918
B5	1.806
B6	1.058
B7	1.040
B8	1.217
B9	2.195
B10	1.776
B11	2.574
B12	2.774

Assay: Probe fluorescence ratio response to linolenic acid relative to ADIFAB2
Type: binding
Settings: response relative to ADIFAB2
Procedure, shortened: as §4

Molecule	DR/DR LNA
B1	3.637
B2	2.850
B3	3.508
B4	3.618
B5	3.169
B6	3.088
B7	3.394
B8	3.009
B9	2.579
B10	2.567
B11	3.322
B12	2.454

Assay: Probe fluorescence ratio response to palmitic acid relative to ADIFAB2
Type: binding
Settings: response relative to ADIFAB2
Procedure, shortened: as §4

Molecule	DR/DR PA
B1	2.968
B2	3.473
B3	2.674
B4	2.987
B5	2.476
B6	2.091
B7	2.934
B8	2.727
B9	2.629
B10	2.524
B11	3.293
B12	1.870

Assay: Probe fluorescence ratio response to arachidonic acid relative to ADIFAB2
Type: binding
Settings: arachidonic acid; response relative to ADIFAB2
Procedure, shortened: as §4

Molecule	DR/DR AA
B1	2.260
B2	2.392
B3	2.774
B4	3.237
B5	2.502
B6	2.712
B7	2.808
B8	2.721
B9	2.540
B10	2.759
B11	3.336
B12	3.536

Assay: Probe fluorescence ratio response to oleic acid relative to ADIFAB2
Type: binding
Settings: response relative to ADIFAB2
Procedure, shortened: as §4

Molecule	DR/DR OA
B1	1.106
B2	3.136
B3	2.832
B4	3.166
B5	2.660
B6	2.556
B7	2.514
B8	2.340
B9	2.670
B10	2.443
B11	3.495
B12	3.424

From patent US20060257938A1, “Method of screening for drugs that block ligand binding to a lipid binding protein” (priority 2005, published 2006)
